Assay results as given in patent publication US20180244785A1 (MERRIMACK PHARMACEUTICALS, published 2018).

Key:
Assay in all cases: ELISA, scFv on coated FGFR-Fc
[1] = molecular target: T1, recombinant human FGFR2c Fc fusion (human, UniProt P21802 148-377)
T1 construct: also called FGFR2IIIc; not shown: Fc part of the FGFR-Fc fusion
Description: (§1) To characterize the novel anti-FGFR antibodies, their relative ability to bind to each individual FGFR in vitro was compared. A solid phase-based ELISA was used to measure the relative binding of the candidate antibodies to immobilized recombinant human FGFR1c, FGFR2c, FGFR3c, and FGFR4. EC50 binding curves were generated for a subset of candidates (FIGS. 3A-3D, respectively; Table 1).
(§2) For the ELISA assay, the ability of each mAb to cross react with the […] FGF receptors was tested across a concentration curve in order to determine the relative binding across FGFR1-4. FGFR2IIIb was used as a negative control. Black 384-well Maxisorp plates were coated overnight with FGFR-Fc fusions in PBS to 1 ug/ml before washing and blocking with 75 ul/well Pierce Protein Free (PBS) Blocking Buffer for 1 hour at RT. Antibody dilutions were prepared freshly in 1% BSA- PBS+0.05% Tween20 and 25 ul of each antibody was added to wells in duplicate. Plates were incubated at RT for 2 hours, followed by addition of detection antibody at 50 ng/ml in 1% BSA PBS, 0.05% Tween20. ECL substrate (Pierce) was added and plates were read on the EnVision plate reader.

[2] = molecular target: T2, FGFR2IIIb Fc fusion (negative control) (human)
T2 construct: also called FGFR2b; not shown: Fc part of the FGFR-Fc fusion
T2 chain: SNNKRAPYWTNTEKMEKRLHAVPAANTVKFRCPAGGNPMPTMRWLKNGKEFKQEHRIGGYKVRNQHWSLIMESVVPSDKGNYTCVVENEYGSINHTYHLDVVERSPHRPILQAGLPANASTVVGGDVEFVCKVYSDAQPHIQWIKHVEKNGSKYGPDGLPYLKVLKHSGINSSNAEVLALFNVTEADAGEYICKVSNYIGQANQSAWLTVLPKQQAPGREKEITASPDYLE
Description: as §1, §2

[3] = molecular target: T3, recombinant human FGFR1c Fc fusion (human, UniProt P11362 141-376)
T3 construct: also called FGFR1IIIc; not shown: Fc part of the FGFR-Fc fusion
T3 sequence: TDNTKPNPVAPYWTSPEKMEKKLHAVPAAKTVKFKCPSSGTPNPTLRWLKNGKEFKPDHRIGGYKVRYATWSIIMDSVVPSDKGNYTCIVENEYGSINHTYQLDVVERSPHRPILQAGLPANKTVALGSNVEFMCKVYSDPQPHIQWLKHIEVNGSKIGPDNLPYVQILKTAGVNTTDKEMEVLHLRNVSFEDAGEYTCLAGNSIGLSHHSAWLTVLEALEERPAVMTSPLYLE
Description: as §1, §2

[4] = molecular target: T4, recombinant human FGFR4 Fc fusion (human, UniProt P22455 144-369)
T4 construct: 19 used; also called FGFR4c; not shown: Fc part of the FGFR-Fc fusion
T4 sequence: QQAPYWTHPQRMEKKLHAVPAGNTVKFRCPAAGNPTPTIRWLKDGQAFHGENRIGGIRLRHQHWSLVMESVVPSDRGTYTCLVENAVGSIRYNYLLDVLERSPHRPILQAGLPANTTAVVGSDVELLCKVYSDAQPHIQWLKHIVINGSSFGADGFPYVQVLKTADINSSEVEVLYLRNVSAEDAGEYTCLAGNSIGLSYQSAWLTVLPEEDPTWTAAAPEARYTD
Description: as §1, §2

[5] = molecular target: T5, recombinant human FGFR3c Fc fusion (human, UniProt P22607 141-372)
T5 construct: also called FGFR3IIIc; not shown: Fc part of the FGFR-Fc fusion
T5 sequence: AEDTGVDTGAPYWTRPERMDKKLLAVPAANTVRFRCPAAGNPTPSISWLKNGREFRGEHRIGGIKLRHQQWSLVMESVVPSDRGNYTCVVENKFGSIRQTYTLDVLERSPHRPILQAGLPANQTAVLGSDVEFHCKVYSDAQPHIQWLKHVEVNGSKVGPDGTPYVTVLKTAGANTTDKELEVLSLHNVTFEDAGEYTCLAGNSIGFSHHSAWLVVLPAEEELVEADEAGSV
Description: as §1, §2

T1 sequence (P21802 148-377): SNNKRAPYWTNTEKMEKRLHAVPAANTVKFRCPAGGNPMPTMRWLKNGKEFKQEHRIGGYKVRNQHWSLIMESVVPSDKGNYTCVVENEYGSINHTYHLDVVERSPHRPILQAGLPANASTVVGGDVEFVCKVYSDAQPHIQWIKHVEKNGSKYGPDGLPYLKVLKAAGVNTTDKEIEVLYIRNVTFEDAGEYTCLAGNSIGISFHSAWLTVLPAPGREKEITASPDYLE

EC50 [1]: 0.62 nM
EC50 [2]: ~108000 nM
EC50 [3]: 0.319 nM
EC50 [4]: 1.07 nM
EC50 [5]: 2.02 nM
B1: Ab3 (scFv format) (scFv)
scFv: EVQLVESGGGVVQPGRSLRLSCAASGFTFSQYSMHWVRQSPGKGLEWVTLISFDGADKYYADSVKGRFTISRDNSNDTLFLHMNGLRVEDTAIYYCVRGAGRGYTYGPDGFDIWGQGTMVTVSSASTGGGGSGGGGSGGGGSGGGGSDIQLTQSPSSLSASVGDRVTITCRTSQTISRYLNWYQQQPGKAPKLLIYTATSLQSGVPSRFSGSGSGTDFTLTIGGLQPEDFAIYFCQQTYSAPLTFGGGTKVEIKRTVAAPSHHHHHH
notes: also called FGF#78
